Data reported in the DeepSol protein solubility set.

assay: soluble on expression in E. coli; label from the status in PepcDB or PDB records

| Sequence | soluble on expression in E. coli |
| --- | --- |
| VHYGLKGITCVETSISHIDGEKGRLIYRGHHAKDIALNHSFEEAAYLILFGKLPSTEELQVFKDKLAAERNLPEHIERLIQSLPNNMDDMSVLRTVVSALGENTYTFHPKTEEAIRLIAITPSIIAYRKRWTRGEQAIAPSSQYGHVENYYYMLTGEQPSEAKKKALETYMILATEHGMNASTFSARVTLSTESDLVSAVTAALGTMKGPLHGGAPSAVTKMLEDIGEKEHAEAYLKEKLEKGERLMGFGHRVYKTKDPRAEALRQKAEEVAGNDRDLDLALHVEAEAIRLLEIYKPGRKLYTNVEFYAAAVMRAIDFDDELFTPTFSASRMVGWCAHVLEQAENNMIFRPSAQYTGAIPEEV | soluble |
| VIDALRNNNDYEPYNKDSNNQAFNSEEITRFFSIGKYTYPSIFSELNFIINAREAFVSIQTSTIPKTAYAAVNFVETQGEDESYTDSLSTDNKRDIYADFAVIEIPLFLTNHRDYQVFNEFIKPAIETYKQLGNSSFEKKQLDQHKNDNFYMLGYPLVESSIDALILNQRRQYNNSYTEKYTPQTLTKDQRTIDLSREVPTLIQNKTENSTGSQLLVNQSLSSTSEGIIE | not soluble |
| VIIDTSALLAYFDAAEPDHAAVSECIDSSADALVVSPYVVAELDYLVATRVGVDAELAVLRELAGGAWELANCGAAEIEQAARIVTKYQDQRIGIADAANVVLADRYRTRTILTLDRRHFSALRPIGGGRFTVIP | not soluble |
| VKSNAQIDSVKCFSTMNDEEIVEDSRAGDDRALEYLINKYKGFVRAKARTYFLIGADREDIIQEGMIGLYKAIRDFRKDKLSSFRAFAELCITRQIITAIKTATRQKHIPLNSYVSLNKPIFDEESDRTLMDIISEESINDPEEMVINREEFSGIEAKMGEILSSLECEVLTSYLQGKSYQEIAVELDRHVKSIDNALQRVKRKLEKYLEESRI | soluble |
| VLFRQLEYFVAVAQERHFARAAEKCYVSQPALSSAIAKLERELNVTLINRGHSFEGLTREGERLVVWAKRILAEHAAFKAEVDAVRSGITGTLRLGTVPTASTTASLVLSAFCSAHPLAKVQVCSRLAATELYRRLREFELDAVIVHPETQDSDDVDLVPLYEEQYVLLSPADMLPPGTSTLVWRDAAQLPLALLTADMRDRQVIDAAFADHAVSAIPQVETDSVASLFAQVATGNWASIVPHTWLWAMPMSGPTGGEIRAVELVDPVLKAQIALATNALGPGSPVARALITCAQALALNEFFDTQLRGITRRR | not soluble |
| VNDNQLAPVARPRSPLELLDTVPDSLLRRLKQYSGRLATEAVSAMQERLPFFADLEASQRASVALVVQTAVVNFVEWMHDPHSDVGYTAQAFELVPQDLTRRIALRQTVDMVRVTMEFFEEVVPLLARSEEQLTALTVGILKYSRDLAFTAATAYADAAEARGTWDSRMEASVVDAVVRGDTGPELLSRAAALNWDTTAPATVLVGTPAPGPNGSNSDGDSERASQDVRDTAARHGRAALTDVHGTWLVAIVSGQLSPTEKFLKDLLAAFADAPVVIGPTAPMLTAAHRSASEAISGMNAVAGWRGAPRPVLARELLPERALMGDASAIVALHTDVMRPLADAGPTLIETLDAYLDCGGAIEACARKLFVHPNTVRYRLKRITDFTGRDPTQPRDAYVLRVAATVGQLNYPTPH | not soluble |
| VPACTVSNTTVDWQDVEIQTLSQNGNHEKEFTVNMRCPYNLGTMKVTITATNTYNNAILVQNTSNTSSDGLLVYLYNSNAGNIGTAITLGTPFTPGKITGNNADKTISLHAKLGYKGNMQNLIAGPFSATATLVASYS | soluble |
| VPGTLLPRLPSEPGMTLLTIRIEKIGLKDAGQCIDPYITVSVKDLNGIDLTPVQDTPVASRKEDTYVHFNVDIELQKHVEKLTKGAAIFFEFKHYKPKKRFTSTKCFAFMEMDEIKPGPIVIELYKKPTDFKRKKLQLLTKKPLYLHLHQSLHKE | soluble |
| VPMDELNERIFKEVVMYLRQHIKNYDNILDALRSTFHSTNHVEKLFFGGKINMLNQPEFHDITRVRSLLSLIEKEQDVLKLVQSPHTGISIKIGKENDYEEMENCSLITASYSVDQKQIGSIAIIGPTRMNYSRVVSLLQHVTSDLSKALTSLYDE | not soluble |
| VPVQLADLKEVRIAYQSIGSESDPALLLVMGLGGQLIHWPDEVVVALCQQGYRVIRYDNRDVGLSTWVQQPADANLTVEVLRYKLGLPVSSPYSLTDMADDALGLMDALQIRQFHVLGASMGGMIAQHLADLAPSRVESLTLIMTSSGAQGLPMPNAALLQLLARRGAPDREVALEQQADLLAALGSPQVKDDREQLLHQAAVSYDRAFNPEGVKRQIMAILAEPSRVELLNRLRLPVLVVHGTADPLLPVMHGVHVAAHIQGSQLRLIPGLAHRFQEAFKAPLLGAVLPYLKA | not soluble |
| VRRLLIVHHTPSPHMQEMFEAVVSGATDPEIEGVEVVRRPALTVSPIEMLEADGYLLGTPANLGYISGALKHAFDVCYYLCLDTTRGRSFGAYIHGNEGTEGAERAVDAITTGLGWVQAAETVVVMGKPSKADIEACWNLGATVAAQLMG | soluble |
| VSKAVQYMAKRRIGALIVFEKETGLQDYIETGIPMNSDISQELLTNVFIPNTPLHDGAMIIQGSKIAVAASYLPLSDSVKISKSLGTRHRAAVGISEVSDAFTVVVSEETGDISVTFDGKLRRDISKDVFEELLAEHWFGAHFQKKGVNS | not soluble |
| VTGPTEESAVATVADWPEGLAAVLRGAADQARAAVVEFSGPEAVGDYLGVSYEDGNAATHRFIAHLPGYQGWQWAVVVASYSGADHATISEVVLVPGPTALLAPDWVPWEQRVRPGDLSPGDLLAPAKDDPRLVPGYTASGDAQVDETAAEIGLGRRWVMSAWGRAQSAQRWHDGDYGPGSAMARSTKRVCRDCGFFLPLAGSLGAMFGVCGNELSADGHVVDRQYGCGAHSDTTAPAGGSTPIYEPYDDGVLDIIEKPAES | soluble |
| VTQQSRQLLDVTRIYYEPAAAELPRGRQVLERWPDATLVPVESHWRIPELHGDETNVDRWVRIKREALVLGIKKSLTAKPNGRSADFIAPSTANGCAMACAYCYVPRRKGYSNPITVFTNIEQITGYLERHVHRQGVKPEPNQCDPASWVYDLGENSDCSVDAEVSDNVDDLIALFRGLPTAKASFATKHVNRRLLTLDPQGRTRVRFSLMPARVAKLLDVRTSPVPERLGALDDFVAAGYEVHVNLSPVVVHEDWLPVWAALLDELGDATNDATKAQLQAEVIFLTHEENLHRVNLGWHPKAEDLLWRPAMQETKRSQNGGVNVRYRTGDKGRYVQQLLALIEERAPYLRVRYAF | soluble |
| VTSPLLPQIGVDPPERGDAARNRRLLLDAAALLVAERGVDAVTMDAVACRAGVGKGTVFRRFGSRSGLMHALLDHTERELQQSFMFGPPPLGPGADPIDRLIAYGHARIAIVEVQGEVQRAAENSVEFRFAAPARAVSVRHVVSLLRAAGVRCDHELLACSLLAPLEATLVLHELRDLGMSVERLGAAWEDLIRRVTRC | not soluble |
| VVELDETPVRTLLARQGIYDKNSAIVAYELLYRNSDAENSHVDNLNQSSGEAATSSVLVQLFANLDVNTIIGNKQAFINFTHSHLVQKIPMLLPKNRIVIEVLETVAIDQPLLLNLMELKKQGYQIALDDFVFRNELAPLVDMADIIKIDVLHLDQQQIAEQLLPLKSFRGKLLAEKIEDKQQFNHCVNLGFDFFQGFFLNKP | not soluble |
| VVTCATDGNHGRSVAWGAQMFGCGCIIYIHRDVSEGRKVAMEAFDAEVIRITGNYDESVRQAGADAKAHGRIIVSDTSYEGYMEVPKDVALGYTVMLAETVEQLDGEIPTHVFVQGGVGGLASAVAGYFWDLWGDRRPRFVVVEPEQANCLQLSAKAGEPVVVKGDLDTLMAGLACGEVSLLAWQILSNGADDFMTLSEDAIADTMSLLAKGYKGDPAIEAGESAVPGLAAAINARAQDTFAKALNLDAQSKVLVIGTEGAT | not soluble |
| WYNFTKRAVKIVLIPVSWFMKAERFAKFENNISEKIDSFYEESVRMTKDWR | not soluble |
| YATPDNMLSRFGEQDLTLLTEREDSVPGEINLALLEQALSDASAEIDGYIAGRYVLPLTTVPAVLERNCCDIARYFLYGDKAPEQVEKRYAAVVKFLTAVSKGDISLGLATTGETADQSELVISIESAGSVFGRKSAKGF | not soluble |
| YDQSSVLIVGDVMLDRYWGGPTSRISPEAPVPVVKVEKIEERPGGAANVAMNIAALGGDAHLVGLVGEDEPAQALTTTLESLKVHCDFVALPEFPTITKLRVMSRGQQLIRLDFEDSFHDVAAEPIISRMQQALSSVKAVVLSDYAKGALEHVQLMIQEARKVNVPVFIDPKGADFERYRGATLLTPNMLEFETVVGKVKDEDDLVAKGQQIIEEFDFEALLVTRSEHGMTLLRRNMEPLHLPTQAREVFDVTGAGDTVISVLAASVSTGKPLDEACALANAAAGVVVGKLGTSTLSTIELAEAIHG | not soluble |
| YENIQNIEDFYRFINAHALAVVHIMRDNCTVCHAVLPQIQDLLKDYPKAQLGVINQSNVEEIAGELSIFTVPVDLIFLKGKEMHRQARFIDMQSFEKQLYMMQNAID | soluble |
| YGNMTEDHVMHLLQNADPLKVYPPLKGSFPENLRHLKNTMETIDWKVFESWMHHWLLFEMSRHSLEQKPTDAPPK | soluble |
| YHPVFSAKIEQRLIERFGVRRALIALDQPNDEAQRQQVAGLVSNYLTSTLKNGMVVTVGQGRNVSAVAHHVGVITPRDCKFVCSIGGIHPRGGMFNADHICRQLAKKYGGSSETLYAPAYAENPEQKRVFMQNSTVKQTLDLARKADIALVGIGDMSENSYMVDLGWFTPEEVVQSRLNQGVVGDFAGHDFFDVHGRIANTVMNDRVIGLGIDEFRPIAEVIAIAAENSKPLALLGALRTGAIDVIATSVSNALTVLNLDEQMQTALSAS | not soluble |
| YHSTDGDTILVGKNNKQNDYLTNKKARKNHLWFHTKDIPGSHVVILNESPSETTIKEAAMLAGYFSKAGSSAQIPVDYTEIRHVHK | not soluble |
| YLDVRQVMYTLVAVFIGSRVIDFVQEGAYAARGALIISKDNDAIASHVMLSMNRGVTVLEGRGGFSKNEQDVLYIVVAKNEIVQLKNIVQAIDPHAFVSVSVVHDVMGEGFTLDENKNPIY | not soluble |
| YLELNEIESIIKDINTKAQKMHSGIHKRFYLFVALMTEFQALNGMRIGEMLAIQNEDIDFDNKSLNINGTIHWFHDESGGFGVKDTTKTESSYRTIGLSSRSCEILKKAILENKKDSKWNDGYLNRNFVFTNHKGNPMQTERFNKILREAAKDVGIDKEVSSHILRHSHISLLSQQGVSLKAIMDRVGHSDHRTTLSIYSHVTEQMDKDMMNKLEQVKLG | soluble |
| YNPIDNIQNATNRRNTVLANMVDDEKLSQADADSAAGVDMASRLVDTYQGTGDDYRYPSYFDAVIEEATKTYGLSEDEIVKNGY | not soluble |
| YRRFEKEKLKSQWNNDNPLFKSATTTVMNPKFAES | soluble |
